Publication PMC7940618, “Specific inhibition of the Survivin–CRM1 interaction by peptide-modified molecular tweezers” (Nature Communications, 2021)
Peptide text beside a SMILES is read from it. * marks the point of attachment. X1 = O=C(Cn1cc(CCOP(=O)(O)Oc2c3c(c(OP(=O)(O)O)c4c2C2CC4c4cc5c(cc42)C2CC5c4ccccc42)C2CC3c3cc4c(cc32)C2CC4c3ccccc32)nn1)*; 5FAM = O=C1OC2(c3ccc(O)cc3Oc3cc(O)ccc32)c2ccc(C(=O)*)cc21

Experiments:
[1] = molecular target: TW-LFEEGLLT (scrambled peptide-modified tweezer); experiment: ITC; tweezer conjugate (100 µM) in the cell, Survivin120 (1.2 mM WT or 2.5 mM K90/103T) in the syringe; PBS pH 7.4, 25 °C; one set of sites model
[2] = molecular target: TW-ELTL (asymmetrical molecular tweezer linked to the short peptide ELTL) (human); experiment: as above
[3] = molecular target: TW-ELTLGEFL (asymmetrical molecular tweezer linked to the elongated peptide ELTLGEFL) (human); experiment: as above
[4] = molecular target: TW-ELTL-FAM (human); experiment: fluorescence polarisation; fluorescence anisotropy; 200 nM FAM-labeled tweezer titrated with Survivin120 (to 180 µM) or K90/103T (to 350 µM); PBS pH 7.4, 25 °C; single-site model
[5] = molecular target: TW-ELTLGEFL-FAM (human); experiment: as above
[6] = molecular target: T1, Survivin120 wildtype (Homo sapiens, UniProt O15392); experiment: Fluorescence anisotropy binding of FAM-labeled tweezers to Survivin120 wildtype
T1 construct: the only published NMR structure originated from a truncated Survivin (aa 1-120) with improved solubility; GST with PreScission site (N); made in house; host or cells: Escherichia coli soluBL21
T1 sequence (O15392 1-120): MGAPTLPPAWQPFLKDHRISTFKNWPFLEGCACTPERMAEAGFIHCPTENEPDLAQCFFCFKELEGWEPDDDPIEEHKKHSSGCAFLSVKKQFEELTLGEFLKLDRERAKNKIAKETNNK
Description: (§1) Fluorescence anisotropy was measured with a Jasco Spectrofluorometer FP-8300 in PBS buffer, pH 7.4, at 25 °C and data were collected with the software Spectra Manager™.
(§2) For binding studies, FAM-labeled molecular tweezers (200 nM) were titrated with Survivin120 wildtype or K90/103T mutant until a final concentration of 180 µM (wildtype) or 350 µM (K90/103T) was reached. Data were normalized to the measured anisotropy A0 in the absence of protein. Using a single-site binding model, the fluorescence anisotropy data were fitted to the equation:3 y=A⋅L+x+KD−L+x+KD^2−4⋅x⋅L/2⋅L where A is the anisotropy at saturation, L is the concentration of the fluorescent ligand, x is the concentration of protein titrated, and KD is the dissociation constant.

[7] = molecular target: T2, Survivin120 K90/103T (Homo sapiens, UniProt O15392, K103T/K90T); experiment: Fluorescence anisotropy binding of FAM-labeled tweezers to Survivin120 K90/103T
T2 construct: the only published NMR structure originated from a truncated Survivin (aa 1-120) with improved solubility; GST with PreScission site (N); made in house; host or cells: Escherichia coli soluBL21
T2 sequence (O15392 1-120 K90T/K103T): as the sequence (O15392 1-120) above, with K90T, K103T counted along it
Description: as §1, §2

[8] = molecular target: Atto488-labeled Survivin120 (human) (UniProt O15392); experiment: fluorescence polarisation; fluorescence anisotropy competition; Atto488-Survivin120 preincubated with CRM1_1-1062VLV430AAA at 1:5, titrated with tweezers to approx. 180 µM; PBS pH 7.4, 25 °C; n = 1
Sequence of Atto488-labeled Survivin120 (human) (O15392 1-120): as the sequence (O15392 1-120) above

[9] = molecular target: Survivin142-HA (human) (UniProt O15392); experiment: pull-down; competition in the pull-down of a5: 293T lysate with Survivin142-HA preincubated 1 h with 10 nM to 200 µM tweezer conjugate before GST-CRM1, RanQ69L and dGTP
Sequence of Survivin142-HA (human) (O15392 whole entry): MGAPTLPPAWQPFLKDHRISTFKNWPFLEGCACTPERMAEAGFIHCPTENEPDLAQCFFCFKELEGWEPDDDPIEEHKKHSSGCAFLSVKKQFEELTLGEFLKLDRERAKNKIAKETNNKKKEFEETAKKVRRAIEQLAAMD

How did the Kd [1] turn out when “Survivin120 (truncated Survivin, aa 1-120) (from UniProt O15392 1-120) (domain or fragment)” was run?
The Kd was 68 µM.

What about the Kd [2] of the same compound?
The Kd was 24 µM.

What about the stoichiometry N (ligand/protein) [2] of the same compound?
The stoichiometry N (ligand/protein) was 2.

And the Kd [3]?
The Kd was 19 µM.

And the stoichiometry N (ligand/protein) [3]?
Its stoichiometry N (ligand/protein) is 2.

And the Kd [4]?
The Kd was 26 µM.

And the Kd [5]?
Its Kd is 5 µM.

`CC(C)C[C@H](NC(=O)[C@H](CCC(=O)O)NC(=O)Cn1cc(CCOP(=O)(O)Oc2c3c(c(OP(=O)(O)O)c4c2[C@H]2C[C@@H]4c4cc5c(cc42)[C@H]2C[C@@H]5c4ccccc42)[C@H]2C[C@@H]3c3cc4c(cc32)[C@H]2C[C@@H]4c3ccccc32)nn1)C(=O)N[C@H](C(=O)N[C@@H](CC(C)C)C(=O)N[C@@H](CCCCNC(=O)c1ccc2c(c1)C(=O)OC21c2ccc(O)cc2Oc2cc(O)ccc21)C(=O)NCC(=O)O)[C@@H](C)O` [TW-ELTL-FAM] was tested. Which Kd [6] did it give?
The Kd was 26 ± 2 µM.

And the Kd [7]?
Its Kd is 240 ± 20 µM.

How did the IC50 [8] turn out when “TW-ELTLGEFL (asymmetrical molecular tweezer linked to the elongated peptide ELTLGEFL)” was run?
Its IC50 is 12 µM.

And the concentration effective in disrupting the Survivin–CRM1 complex [9]?
The concentration effective in disrupting the Survivin–CRM1 complex was 1 to 10 µM.

How did the Kd [6] turn out when `CC(C)C[C@H](NC(=O)[C@H](Cc1ccccc1)NC(=O)[C@H](CCC(=O)O)NC(=O)CNC(=O)[C@H](CC(C)C)NC(=O)[C@@H](NC(=O)[C@H](CC(C)C)NC(=O)[C@H](CCC(=O)O)NC(=O)Cn1cc(CCOP(=O)(O)Oc2c3c(c(OP(=O)(O)O)c4c2C2CC4c4cc5c(cc42)C2CC5c4ccccc42)C2CC3c3cc4c(cc32)C2CC4c3ccccc32)nn1)[C@@H](C)O)C(=O)N[C@@H](CCCCNC(=O)c1ccc2c(c1)C(=O)OC21c2ccc(O)cc2Oc2cc(O)ccc21)C(=O)NCC(=O)O` [TW-ELTLGEFL-FAM] (X1-ELTLGEFLK(5FAM)G-OH) was run?
The Kd was 5 ± 0.5 µM.

And the Kd [7]?
Its Kd is 92 ± 5 µM.
